From patent US20150086555A1

How the values were obtained:
Details in all cases: remark: other sources report otherwise
[1] = biological target: recombinant homotrimeric HA A/Vietnam/1203/04 H5N1 (Influenza A virus A/VietNam/1203/2004(H5N1)); assay: protein microarray, purified IgG, trimeric HA
[2] = biological target: recombinant homotrimeric HA A/northern shoveler/California/HKWF115/07 H6N4 (Influenza A virus A/northern shoveler/California/HKWF115/2007(H6N1)); assay: protein microarray, purified IgG, trimeric HA
[3] = biological target: recombinant homotrimeric HA A/Netherlands/219/03 H7N7 (Influenza A virus A/Netherlands/219/03(H7N7)); assay: protein microarray, purified IgG, trimeric HA
[4] = biological target: recombinant homotrimeric HA A/Egypt/3300-NAMRU3/08 H5N1 (Influenza A virus A/Egypt/3300-NAMRU3/2008(H5N1)); assay: protein microarray, purified IgG, trimeric HA
[5] = biological target: recombinant homotrimeric HA A/Hong Kong/156/97 H5N1 (Influenza A virus A/Hong Kong/156/97 (H5N1)); assay: protein microarray, purified IgG, trimeric HA
[6] = biological target: recombinant homotrimeric HA A/Solomon Islands/3/06 H1N1 (Influenza A virus A/Solomon Islands/3/2006(H1N1)); assay: protein microarray, purified IgG, trimeric HA
[7] = biological target: recombinant homotrimeric HA A/South Carolina/1/18 H1N1 (Influenza A virus A/South Carolina/1/18 (H1N1)); assay: protein microarray, purified IgG, trimeric HA
[8] = biological target: recombinant homotrimeric HA A/Indonesia/5/05 H5N1 (Influenza A virus A/Indonesia/5/2005(H5N1)); assay: protein microarray, purified IgG, trimeric HA
[9] = biological target: recombinant homotrimeric HA A/Wisconsin/67/05 H3N2 (Influenza A virus A/Wisconsin/67/2005(H3N2)); assay: protein microarray, purified IgG, trimeric HA
[10] = biological target: recombinant homotrimeric HA A/Japan/305/57 H2N2 (Influenza A virus A/Japan/305/1957(H2N2)); assay: protein microarray, purified IgG, trimeric HA
[11] = biological target: recombinant homotrimeric HA A/Hong Kong/2108/03 H9N2 (Influenza A virus A/HK/2108/2003(H9N2)); assay: protein microarray, purified IgG, trimeric HA
[12] = biological target: recombinant homotrimeric HA A/Anhui/1/05 H5N1 (Influenza A virus A/Anhui/1/2005(H5N1)); assay: protein microarray, purified IgG, trimeric HA
[13] = biological target: recombinant homotrimeric HA A/Hong Kong/1073/99 H9N2 (Influenza A virus A/Hong Kong/1073/99 (H9N2)); assay: protein microarray, purified IgG, trimeric HA
[14] = biological target: recombinant soluble homotrimeric HA of A/Solomon Islands/3/06 (H1N1) (Influenza A virus A/Solomon Islands/3/2006(H1N1)); assay: HA microarray, BCC supernatant
[15] = biological target: recombinant soluble homotrimeric HA of A/Japan/305/57 (H2N2) (Influenza A virus A/Japan/305/1957(H2N2)); assay: HA microarray, BCC supernatant
[16] = biological target: recombinant soluble homotrimeric HA of A/Vietnam/1203/04 (H5N1) (Influenza A virus A/VietNam/1203/2004(H5N1)); assay: HA microarray, BCC supernatant
[17] = biological target: recombinant soluble homotrimeric HA of A/northern shoveler/California/HKWF115/07 (H6) (Influenza A virus A/northern shoveler/California/HKWF115/2007(H6N1)); assay: HA microarray, BCC supernatant
[18] = biological target: recombinant soluble homotrimeric HA of A/Netherlands/219/03 (H7N7) (Influenza A virus A/Netherlands/219/03(H7N7)); assay: HA microarray, BCC supernatant
[19] = biological target: recombinant soluble homotrimeric HA of A/Hong Kong/2108/03 (H9N2) (Influenza A virus A/HK/2108/2003(H9N2)); assay: HA microarray, BCC supernatant
[20] = biological target: recombinant soluble homotrimeric HA of A/swine/Ontario/01911-2/99 (H4N6) (Influenza A virus A/Swine/Ontario/01911-2/99 (H4N6)); assay: HA microarray, BCC supernatant
[21] = biological target: recombinant soluble homotrimeric HA of A/Wisconsin/67/05 (H3N2) (Influenza A virus A/Wisconsin/67/2005(H3N2)); assay: HA microarray, BCC supernatant
[22] = biological target: recombinant homotrimeric HA A/California/4/09 H1N1 (Influenza A virus A/California/04/2009(H1N1)); assay: protein microarray, purified IgG, trimeric HA
[23] = biological target: recombinant homotrimeric HA A/chicken/Vietnam/NCVD-016/08 H5N1 (Influenza A virus A/chicken/Vietnam/NCVD-016/2008(H5N1)); assay: protein microarray, purified IgG, trimeric HA
[24] = biological target: recombinant soluble homotrimeric HA of A/Indonesia/5/05 (H5N1) (Influenza A virus A/Indonesia/5/2005(H5N1)); assay: HA microarray, BCC supernatant
[25] = biological target: recombinant soluble homotrimeric HA of A/Anhui/1/05 (H5N1) (Influenza A virus A/Anhui/1/2005(H5N1)); assay: HA microarray, BCC supernatant
[26] = biological target: recombinant soluble homotrimeric HA of A/duck/Yangzhou/02/05 (H8N4) (Influenza A virus A/duck/Yangzhou/02/2005(H8N4)); assay: HA microarray, BCC supernatant
[27] = biological target: recombinant soluble homotrimeric HA of A/chicken/Vietnam/NCVD-016/08 (H5N1) (Influenza A virus A/chicken/Vietnam/NCVD-016/2008(H5N1)); assay: HA microarray, BCC supernatant
[28] = biological target: recombinant soluble homotrimeric HA of A/California/4/09 (H1N1) (Influenza A virus A/California/04/2009(H1N1)); assay: HA microarray, BCC supernatant

| Binder | Trimeric HA Binding: RLU [1] [RLU] | Trimeric HA Binding: RLU [2] [RLU] | Trimeric HA Binding: RLU [3] [RLU] | Trimeric HA Binding: RLU [4] [RLU] | Trimeric HA Binding: RLU [5] [RLU] | Trimeric HA Binding: RLU [6] [RLU] | Trimeric HA Binding: RLU [7] [RLU] | Trimeric HA Binding: RLU [8] [RLU] | Trimeric HA Binding: RLU [9] [RLU] | Trimeric HA Binding: RLU [10] [RLU] | Trimeric HA Binding: RLU [11] [RLU] | Trimeric HA Binding: RLU [12] [RLU] | Trimeric HA Binding: RLU [13] [RLU] | Trimeric HA Binding: RLU [14] [RLU] | Trimeric HA Binding: RLU [15] [RLU] | Trimeric HA Binding: RLU [16] [RLU] | Trimeric HA Binding: RLU [17] [RLU] | Trimeric HA Binding: RLU [18] [RLU] | Trimeric HA Binding: RLU [19] [RLU] | Trimeric HA Binding: RLU [20] [RLU] | other results |
| --- | --- | --- | --- | --- | --- | --- | --- | --- | --- | --- | --- | --- | --- | --- | --- | --- | --- | --- | --- | --- | --- |
| TCN-543 (5081_G23) (antibody, V domains shown) VH: QVHLVQSGAEVRKPGDSVKVSCKTSGYTFSTYPVAWVRQVPGQGLEWMGWISTYNGNTNFAQNFQGRVTLTTDTTTNTAYMEVRSLKFDDTAVYYCARVEGSYRDFWNNQNRFDPWGQGTLVTVSS VL: SYVLTQPPSVSVAPGQTARISCGGSNIGGKSVHWYQQKPGQAPVLVVYDDSGRPSGIPERFSGSNSGDTATLTISRVEAGDEADYFCQVWDNFGGVFGTGTKVTVL | 640 | 101 | 162 | 580 | 112 | 18300 | 259 | 91 | 302 | 14000 | 135 | 601 | 9160 | 511 | 197 | 488 | 2130 | 661 | 131 | 428 | Trimeric HA Binding: RLU [21]: 1360 RLU |
| TCN-557 (5081_A04) (antibody, V domains shown) VH: QVQLVQSGAEVKKPGASVKVSCKASGHTFTGYYIHWVRQAPGQGLEWMGWINPDSGATSSAQNFQGRVTMTGDTSSSTAYMELSRLSFDDTAVYYCARVLFTSPFDFWGEGTLVTVSS VL: QAVVTQEPSLAVSPGGTVTLTCGSSTGAVTRGHYPYWFQQKPGQAPRALIYDSAGNRHSWTPARFSGSLLGGKAALTLSGAQPEDEAEYYCLLSYSGVWVFGGGTKLTVL | 25400 | 12600 | 7250 | 23600 | 22800 | 22700 | 3590 | 23300 | 327 | 28900 | 7660 | 22000 | 440 | 40700 | 43400 | 47300 | 24400 | 6780 | 35300 | 27000 | Trimeric HA Binding: RLU [22]: 1170 RLU; Trimeric HA Binding: RLU [23]: 25400 RLU; Trimeric HA Binding: RLU [24]: 45200 RLU; Trimeric HA Binding: RLU [25]: 46000 RLU; Trimeric HA Binding: RLU [26]: 50100 RLU; Trimeric HA Binding: RLU [27]: 45500 RLU; Trimeric HA Binding: RLU [28]: 17600 RLU; Trimeric HA Binding: RLU [21]: 10200 RLU |
